Experimental data as given in paper PMC7213983.
Blank lines part the entries; values can stand above or below the substance they belong to.

Assays:
chicken MRP126 (chicken) = chicken MRP126 (chicken) (UniProt P28318); assay: SEC-MALS; Superose 12 10/300 GL; samples at 0.5-2 mg/ml in tris buffer (25 mM tris, 100 mM NaCl, pH 7.4) + 0.5 mM CaCl2; flow 0.2 ml/min
human S100A9 (human) = human S100A9 (human) (UniProt P06702); assay: as above
[1] = molecular target: human S100A9 M63F (human) (UniProt P06702); assay: as above
human S100A12 (human) = human S100A12 (human) (UniProt P80511); assay: as above
[2] = molecular target: opossum Toll-like receptor 4 (opossum)

Substance: human S100A9 M63F (from UniProt P06702 1-114) (natural protein)
- stoichiometry N [1]: 2

Substance: human S100A12 (from UniProt P80511 1-92) (natural protein)
- stoichiometry N (human S100A12 (human)): 2

Substance: opossum S100A9 (natural protein)
- NF-κB luciferase reporter in HEK293T cells transfected with opossum TLR4, MD-2 and CD14; activity against that of human A9 (fold of human A9 activity) [2]: 0.5

Further lines, results first:

- stoichiometry N (chicken MRP126 (chicken)): 2
Substance: chicken MRP126 (from UniProt P28318 1-119) (natural protein)

- stoichiometry N (human S100A9 (human)): 2
Substance: human S100A9 (from UniProt P06702 1-114) (natural protein)
